Source: patent US20220204610A1, “PROTEIN BINDERS FOR IRHOM2” (NEW YORK SOCIETY FOR THE RELIEF OF THE RUPTURED AND …, priority 2019, published 2022)

How the values were obtained:
[1] = molecular target: T1, human iRhom2 (Homo sapiens, UniProt Q6PJF5); assay: Peptide binding ELISA, binding specificity (Example 10), iRhom2 peptides; conditions: antibody 3 μg/ml PBS; peptide coated at 10 μg/ml; normalized to IgM isotype control
T1 construct: the single peptide 3 resembling amino acids 431 to 459 of the extracellular juxtamembrane domain of human iRhom2; made in house; host or cells: chemical synthesis (Fmoc solid phase peptide synthesis), no expression host
T1 sequence (Q6PJF5 with tags, fused parts or gaps): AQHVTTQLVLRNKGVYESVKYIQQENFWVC
Procedure: (§1) Another series of peptide binding ELISA experiments was conducted to address the specificity of the purified antibody 4H8-E3 of the invention, i.e. to question whether this antibody specifically recognizes peptides, in particular peptide 3, resembling the extracellular juxtamembrane region adjacent to the TMD1 of human iRhom2, or whether the antibody 4H8-E3 of the invention also binds to peptides reflecting the homologous region of the closely related family member human iRhom1.
(§2) In brief, on day 1, Nunc black MaxiSorp® 96-well plates (Thermo Fisher Scientific, USA) were coated overnight with 100 μl per well of single biotinylated peptides 1 to 4, Mix A consisting of peptides 1 to 4, single biotinylated peptides 1b to 4b, and Mix D consisting of peptides 1b to 4b at 10 μg/m1 PBS each (thus, the final concentration of each peptide in both mixes was 2.5 μg/m1) at 4° C. On day 2, peptide solutions were removed and MaxiSorp® plates were blocked with 300 μl per well of Pierce protein-free (TBS) blocking buffer (Thermo Fisher Scientific, USA) at room temperature for 1.5 hours. […] Using an infinite M1000 PRO (Tecan Group, Switzerland) microplate reader, the fluorescence of each well was collected at an excitation wavelength of 435 nm and an emission wavelength of 555 nm.

[2] = tested on: human iRhom2; assay: as above; conditions: antibody 3 μg/ml PBS; peptides coated at 10 μg/ml; normalized to IgM isotype control
Procedure: as §1, §2

B1: 4H8-E3: Mouse IgM monoclonal antibody against the human iRhom2 juxtamembrane domain adjacent to TMD1; HC VD SEQ ID NO 33, LC VD SEQ ID NO 40 (antibody, V domains shown)
VH: EVQLQQSGPELVKPGASVKISCKASGYTFTDYYMNWVKQSHGKSLEWIGDINPNNGGTSYNQKFKGKATLTVDKSSNTAYMEFRSLTSEDSAVYYCARRGYYGVDYWGQGTTLTVSS
VL: NIVMTQSPKSMSMSVGERVTLNCKASENVGTYVSWYQQKPEQSPKLLIFGASNRYTGVPDRFIGSGFATDFTLTISSVQAEDLADYHCGQSYSYPYTFGGGTKLEIK
modifications: IgM constant regions; antibody sequence
What does the source list for B1?
binding to single peptide 3 (amino acids 431 to 459 of human iRhom2) [1]: Binding; binding to Mix A consisting of peptides 1, 2, 3 and 4 [2]: Binding
